In article PMC5884802:
Blank lines part the entries; values can stand above or below the molecule they belong to.

Assays:
[1] = test system: α-CRP (α-CRP-AuNP) (DNA, aptamer) ACACGATGGGGGGGTATGATTTGATGTGGTTGTTGCATGATCGTGG; experiment: competitive lateral flow assay; details: Na+ 50 mM, K+ 5 mM, Mg2+ 5 mM, Ca2+ 2 mM; 20 mM Tris, 0.1 mM BSA, 1.7% Triton-X-100, pH 8; biotinylated CRP displaced; signal decrease at 18.5 µg ampicillin
[2] = test system: CRP-FAM (α-CRP aptamer) (DNA, aptamer) ACACGATGGGGGGGTATGATTTGATGTGGTTGTTGCATGATCGTGG; experiment: microscale thermophoresis; details: Na+ 50 mM, K+ 5 mM, Mg2+ 5 mM, Ca2+ 2 mM; 20 mM Tris-HCl, 0.1% Tween-20, pH 8.0; up to 100 µM; no plateau, no fit
[3] = test system: Amp(short)-FAM (α-Amp(short) aptamer) (DNA, aptamer) CACGGCATGGTGGGCGTCGTG; experiment: microscale thermophoresis; details: Na+ 50 mM, K+ 5 mM, Mg2+ 5 mM, Ca2+ 2 mM; 20 mM Tris-HCl, 0.1% Tween-20, pH 8.0; second printed KD 600 nM, unexplained
[4] = test system: α-Amp-short (α-Amp-short-AuNP) (DNA, aptamer) CACGGCATGGTGGGCGTCGTG; experiment: competitive lateral flow assay; details: Na+ 50 mM, K+ 5 mM, Mg2+ 5 mM, Ca2+ 2 mM; 20 mM Tris, 0.1 mM BSA, 1.7% Triton-X-100, pH 8; biotinylated CRP displaced; signal decrease at 185 µg ampicillin
[5] = target: T1, C-reactive protein (CRP), biotinylated (UniProt P02741 19-224); experiment: MST; binding indicated, no plateau, no Kd fit; CRP-biotin 610 pM-20 µM; LFA: 20 mM Tris, 50 mM NaCl, 5 mM KCl, 5 mM MgCl2, 2 mM CaCl2, 0.1 mM BSA, 1.7% Triton X-100, pH 8, temperature not stated; MST with CRP-biotin: 32.8 mM Tris-HCl, 70.5 mM NaCl, 2.5 mM KCl, 2.5 mM MgCl2, 1.4 mM CaCl2, 0.1% Tween-20, 5 nM FAM-oligo; details: protein: commercial; tags: biotin (NHS-PEG4-Biotin); chain copies: 5; label: 5' FAM; stem-loop (Mfold)
T1 sequence: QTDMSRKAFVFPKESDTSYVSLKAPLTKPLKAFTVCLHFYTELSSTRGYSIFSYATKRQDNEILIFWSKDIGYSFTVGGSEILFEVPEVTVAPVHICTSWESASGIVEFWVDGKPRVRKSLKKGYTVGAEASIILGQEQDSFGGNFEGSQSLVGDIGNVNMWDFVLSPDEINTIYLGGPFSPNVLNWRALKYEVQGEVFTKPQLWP

[6] = target: T1, C-reactive protein (CRP), biotinylated; experiment: lateral flow assay (AuNP); 40.5 µg CRP-biotin; LFA: 20 mM Tris, 50 mM NaCl, 5 mM KCl, 5 mM MgCl2, 2 mM CaCl2, 0.1 mM BSA, 1.7% Triton X-100, pH 8, temperature not stated; MST with CRP-biotin: 32.8 mM Tris-HCl, 70.5 mM NaCl, 2.5 mM KCl, 2.5 mM MgCl2, 1.4 mM CaCl2, 0.1% Tween-20, 5 nM FAM-oligo; details: protein: commercial; tags: biotin (NHS-PEG4-Biotin); chain copies: 5; label: 10 nm gold nanoparticle via 5' thiol; stem-loop (Mfold)
[7] = target: T1, C-reactive protein (CRP), biotinylated; experiment: lateral flow assay (FAM); 4 µg CRP-biotin; LFA: 20 mM Tris, 50 mM NaCl, 5 mM KCl, 5 mM MgCl2, 2 mM CaCl2, 0.1 mM BSA, 1.7% Triton X-100, pH 8, temperature not stated; MST with CRP-biotin: 32.8 mM Tris-HCl, 70.5 mM NaCl, 2.5 mM KCl, 2.5 mM MgCl2, 1.4 mM CaCl2, 0.1% Tween-20, 5 nM FAM-oligo; details: protein: commercial; tags: biotin (NHS-PEG4-Biotin); chain copies: 5; label: 5' FAM
[8] = target: T1, C-reactive protein (CRP), biotinylated; experiment: lateral flow assay (AuNP); 40.5 µg CRP-biotin; test line stronger than α-CRP; LFA: 20 mM Tris, 50 mM NaCl, 5 mM KCl, 5 mM MgCl2, 2 mM CaCl2, 0.1 mM BSA, 1.7% Triton X-100, pH 8, temperature not stated; MST with CRP-biotin: 32.8 mM Tris-HCl, 70.5 mM NaCl, 2.5 mM KCl, 2.5 mM MgCl2, 1.4 mM CaCl2, 0.1% Tween-20, 5 nM FAM-oligo; details: protein: commercial, tags: biotin (NHS-PEG4-Biotin), chain copies: 5, label: 10 nm gold nanoparticle via 5' thiol

binding [1]: yes | binding [2]: yes | KD [3]: 263 nM | binding [4]: yes
Molecule: CC1(C)S[C@@H]2[C@H](NC(=O)[C@H](N)c3ccccc3)C(=O)N2[C@H]1C(=O)O

B1: Amp(short)-FAM (ssDNA)
DNA: CACGGCATGGTGGGCGTCGTG
binding result [5]: binds

B2: CRP-FAM (ssDNA)
DNA: ACACGATGGGGGGGTATGATTTGATGTGGTTGTTGCATGATCGTGG
binding result [5]: binds

B3: α-CRP (AuNP conjugate) (ssDNA)
DNA: B2 DNA
modifications: 5' SH-(C6H12) thiol
binding result [6]: binds

B4: Amp(short) w/o TGG-FAM (ssDNA)
DNA: CACGGCATAGACCGCGTCGTG
binding result [7]: binds

B5: α-Amp-poly(T) (AuNP conjugate) (ssDNA)
DNA: TTTTTTTTTTTTTTTCACGGCATGGTGGGCGTCGTG
modifications: 5' SH-(C6H12) thiol
binding result [8]: binds

B6: α-Amp-short (AuNP conjugate) (ssDNA)
DNA: CACGGCATGGTGGGCGTCGTG
modifications: 5' SH-(C6H12) thiol
binding result ([8]; stem-loop (Mfold)): binds

B7: CRP w/o TGG-FAM (ssDNA)
DNA: ACACGAACCGGGCCAATGATTTGATGACCTTGTTGCATGATCGTAG
binding result [7]: binds
